In US20190382481A1 (Janssen / Centocor, published 2019):
Numbering of substitutions follows the chain as printed.

B1: C3CB11 (bispecific antibody, human IgG4 S228P, lambda, F234A L235A)
heavy 1: not shown
light 1: SYELTQPPSVSVSPGQTASITCSGDKLGDKYACWYQQKPGQSPVLVIYQDGKRPSGIPERFSGSNFGNKATLTISGTQAMDEADYYCQAWDRNTVVFGGGTKLTVLGQPKAAPSVTLFPPSSEELQANKATLVCLISDFYPGAVTVAWKADSSPVKAGVETTTPSKQSNNKYAASSYLSLTPEQWKSHRSYSCQVTHEGSTVEKTVAPTECS
heavy 2: EVQLVESGGGLVQPGGSLRLSCAASGFTFNTYAMNWVRQAPGKGLEWVARIRSKYNNYATYYAASVKGRFTISRDDSKNSLYLQMNSLKTEDTAVYYCARHGNFGNSYVSWFAYWGQGTLVTVSSASTKGPSVFPLAPCSRSTSESTAALGCLVKDYFPEPVTVSWNSGALTSGVHTFPAVLQSSGLYSLSSVVTVPSSSLGTKTYTCNVDHKPSNTKVDKRVESKYGPPCPPCPAPEAAGGPSVFLFPPKPKDTLMISRTPEVTCVVVDVSQEDPEVQFNWYVDGVEVHNAKTKPREEQFNSTYRVVSVLTVLHQDWLNGKEYKCKVSNKGLPSSIEKTISKAKGQPREPQVYTLPPSQEEMTKNQVSLTCLVKGFYPSDIAVEWESNGQPENNYKTTPPVLDSDGSFLLYSKLTVDKSRWQEGNVFSCSVMHEALHNHYTQKSLSLSLGK
light 2: QTVVTQEPSLTVSPGGTVTLTCRSSTGAVTTSNYANWVQQKPGQAPRGLIGGTNKRAPGTPARFSGSLLGGKAALTLSGVQPEDEAEYYCALWYSNLWVFGGGTKLTVLGQPKAAPSVTLFPPSSEELQANKATLVCLISDFYPGAVTVAWKADSSPVKAGVETTTPSKQSNNKYAASSYLSLTPEQWKSHRSYSCQVTHEGSTVEKTVAPTECS
B2: C3CB8 (bispecific antibody, human IgG4 S228P, lambda, F234A L235A)
heavy 1: not shown
light 1: B1 light 1 with D25H, L45V, Q49K, G51S, K69T, R92S, N93S
heavy 2: B1 heavy 2
light 2: B1 light 2
B3: C3CB10 (bispecific antibody, human IgG4 S228P, lambda, F234A L235A)
heavy 1: not shown
light 1: B1 light 1 with L45V, G51R, K69T, R92S, N93S
heavy 2: B1 heavy 2
light 2: B1 light 2
B4: C3CB89 (bispecific antibody, human IgG4 S228P, kappa, lambda, F234A L235A)
heavy 1: not shown
light 1: not shown
heavy 2: B1 heavy 2
light 2: B1 light 2
B5: C3CB91 (bispecific antibody, human IgG4 S228P, lambda, F234A L235A)
heavy 1: not shown
light 1: SYELTQPPSVSVSPGQTASITCSGDNLGNEHVCWYHQKPGQSPVLVIYQNNKRPSGIPERFSGSNSGNTATLSISGTQATDEADYYCQAWDSTTAVFGGGTKLTVLGQPKAAPSVTLFPPSSEELQANKATLVCLISDFYPGAVTVAWKADSSPVKAGVETTTPSKQSNNKYAASSYLSLTPEQWKSHRSYSCQVTHEGSTVEKTVAPTECS
heavy 2: B1 heavy 2
light 2: B1 light 2
B6: C3CB90 (bispecific antibody, human IgG4 S228P, lambda, F234A L235A)
heavy 1: not shown
light 1: SYELTQPPSVSVSPGQTASITCSGDELGDMYACWYQQKPGQSPLVVIYQDSKRPSGIPERFSGSNSGNTATLTISGTQAMDEAAYYCQTWDTRIAVFGGGTNLTVLGQPKAAPSVTLFPPSSEELQANKATLVCLISDFYPGAVTVAWKADSSPVKAGVETTTPSKQSNNKYAASSYLSLTPEQWKSHRSYSCQVTHEGSTVEKTVAPTECS
heavy 2: B1 heavy 2
light 2: B1 light 2
B7: C3CB87 (bispecific antibody, human IgG4 S228P, kappa, lambda, F234A L235A)
heavy 1: not shown
light 1: not shown
heavy 2: B1 heavy 2
light 2: B1 light 2
B8: C3CB5 (bispecific antibody, human IgG4 S228P, lambda, F234A L235A)
heavy 1: not shown
light 1: B1 light 1 with A32V, L45V, Y48H, G51R, K69T, R92S, N93S
heavy 2: B1 heavy 2
light 2: B1 light 2
B9: C3CB16 (bispecific antibody, human IgG4 S228P, lambda, F234A L235A)
heavy 1: not shown
light 1: not shown
heavy 2: B1 heavy 2
light 2: B1 light 2
B10: C3CB14 (bispecific antibody, human IgG4 S228P, lambda, F234A L235A)
heavy 1: not shown
light 1: B1 light 1 with D29N, C33S, G51T, F61V, F66S, K69T, Y86H, R92S, N93S
heavy 2: B1 heavy 2
light 2: B1 light 2
B11: C33B914 (antibody, V domains shown)
VH: QVQLVESGGGVVQPGRSLRLSCAASGFTFSYYGMHWVRQAPDKGLEWVAVIWFDGNNKYYADSVKGRFTISRDNSKNTLYLQMNSLRAEDTAVYYCARDRELLFDYWGQGTLVTVSS
VL: SYELTQPPSVSVSPGQTASITCSGDELGDMYACWYQQKPGQSPLVVIYQDSKRPSGIPERFSGSNSGNTATLTISGTQAMDEAAYYCQTWDTRIAVFGGGTNLTVLG
notes: OMNIMouse mAb; HC C33H254, LC C33L120 (same IDs as C33B906); also called C33F552
B12: C33B909 (antibody, V domains shown)
VH: EVQLVESGGGLVQPGRSLRLSCVASGFTFDDYAIHWVRQAPGKGLEWVSGLSWNGGNIGYADSVKGRFTISRDNAKNSLYLQMNSLKTEDTAFYYCTKDTPYGDYFDYWGQGTLVTVSS
VL: DIQMTQSPSSVWASVGDRVTITCRASQGISSWLAWYQQQPGKAPNLLIYRSSSLQSGVPSRFSGSGSGTDFTLTISSLQPEDFATYYCQQDNSFPYTFGQGTKLEIKR
notes: OMNIMouse mAb; HC C33H249, LC C33L115 (same IDs as C33B901); the campaign was cloned into both IgG1 and IgG4 PAA
B13: C33B910 (antibody, V domains shown)
VH: B12 VH with V23A, A24G, M83L, T97A, T100S
VL: B12 VL with V11E, Q39K, N45K, R50G, S51A, L54W
notes: OMNIMouse mAb; HC C33H250, LC C33L116 (same IDs as C33B902)
B14: C33B913 (antibody, V domains shown)
VH: EVQLLESGGGLVQPGGSLKLSCTASGFTFRSYAMSWVRQAPGKGLEWVSAINGYGDGRYYADSVKGRFTISRDNSKNTLYLQMNSLRAEDTAVYSCAKDQGFGELFFDYWGQGTLVTVSS
VL: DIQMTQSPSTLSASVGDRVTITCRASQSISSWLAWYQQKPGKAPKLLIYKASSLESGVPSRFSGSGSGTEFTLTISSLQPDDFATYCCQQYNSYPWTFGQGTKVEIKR
notes: OMNIMouse mAb; HC C33H253, LC C33L119 (same IDs as C33B905); also called C33F551
B15: C33B915 (antibody, V domains shown)
VH: EVQLVESGGGLVQPGRSLRLSCAASGFTFDDYAMHWVRQVPGEGLEWVSGISWNGGDMVYADSVKGRFTISRDNAKNSLYLQMNSLRPEDTALYYCVKDMPYFDFLTGSDYYYYGMDVWGQGTTVTVSS
VL: SYELTQPPSVSVSPGQTASITCSGDNLGNEHVCWYHQKPGQSPVLVIYQNNKRPSGIPERFSGSNSGNTATLSISGTQATDEADYYCQAWDSTTAVFGGGTKLTVLG
notes: OMNIMouse mAb; HC C33H255, LC C33L121 (same IDs as C33B907); also called C33F553

target: T1, human CD33 (human, UniProt P20138 18-364); test: cell-based or functional assay
T1 sequence (P20138 18-364 limits assumed): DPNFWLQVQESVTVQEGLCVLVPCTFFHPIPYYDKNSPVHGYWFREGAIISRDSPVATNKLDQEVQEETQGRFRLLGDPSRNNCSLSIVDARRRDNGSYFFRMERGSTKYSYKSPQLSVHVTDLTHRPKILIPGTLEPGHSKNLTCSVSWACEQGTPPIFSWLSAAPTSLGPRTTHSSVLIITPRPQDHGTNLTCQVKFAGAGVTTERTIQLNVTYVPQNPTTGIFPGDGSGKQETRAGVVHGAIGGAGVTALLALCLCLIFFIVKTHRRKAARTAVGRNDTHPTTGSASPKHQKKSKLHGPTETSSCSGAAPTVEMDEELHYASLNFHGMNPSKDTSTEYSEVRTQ

Binder | Primary AML Cell Killing EC50 (nM), ex vivo AML patient whole blood [nM]
B1 | 3.96

target: T1, human CD33; test: cell-based or functional assay; remark: another data set of the same source

Binder | Cytotoxicity EC50 (nM), T-cell mediated cytotoxicity of MOLM-13 [nM]
B2 | 0.513
B3 | 0.473
B4 | 0.41
B5 | 0.35
B6 | 10.6
B7 | 0.067
B8 | 1.26
B9 | 0.667
B10 | 0.538

target: T2, Cyno CD33 full length (cynomolgus monkey); test: flow cytometry on HEK293F cells expressing cyno CD33
T2 construct: Stably expressed on HEK293F cells by lentiviral transduction; also called Cyno CD33 (on HEK293F cells)
Procedure: (§1) The purified antibodies were assessed for binding to stably transfected HEK293F cells expressing human CD33 or cyno CD33 (generation described above) along with the parental HEK293F as negative control. Cells were harvested from tissue culture flasks using non-enzymatic dissociation buffer (Thermo Scientific). The flasks were rinsed twice with PBS and dissociation buffer was added to the flask, and the flask was incubated for 10 minutes at 37° C. until the cells became non-adherent. The cells were centrifuged at 300 g for 5 minutes and resuspended at 1.0×10⁶ cells/ml in staining buffer (Becton Dickinson; Franklin Lakes, N.J.). 50,000 cells/well of each cell type was plated in 50 μl of staining buffer in round bottom plates (Becton Dickinson). 50 μl of 2× concentration test mAb or isotype control was added at 3 dilutions and zero (120 nM, 12 nM, and 1.2 nM and 0 nM), and the resultant solution was incubated 30 min at 4° C. 100 μl staining buffer was added to all wells of each plate, the plates were spun at 300 g for 5 min, the buffer was removed, 200 μl staining buffer was added to all wells of each plate, the plates were spun at 300 g for 5 min, and the buffer was removed. 50 μl of 2 μg/ml of Goat-anti-human Fc AF647 secondary antibody (Jackson Immunoresearch; West Grove, Pa.) was added to all wells of the plates, and the plates were incubated for 30 min at 4° C. 100 μl staining buffer was added to all wells of the plates, the plates were spun at 300 g for 5 min, and the buffer was removed. 200 μl running buffer (running buffer is Staining buffer, 1 mM EDTA, 0.1% Pluronic Acid) was added to all wells of the plates, the plates were spun at 300 g for 5 min, and the buffer was removed. 30 ul running buffer containing Sytox Green live/dead dye (ThermoFisher) was added to all wells with cells and the plates were read on an iQue IntelliCyt flow cytometer. Cells were gated on forward vs. side scatter to eliminate debris, then on singlets and then on live cells which excluded the Sytox stain. Antibody binding was assessed by the mean fluorescence intensity in the AF647 channel. […]

T2 sequence (chain, as listed by the source limits assumed): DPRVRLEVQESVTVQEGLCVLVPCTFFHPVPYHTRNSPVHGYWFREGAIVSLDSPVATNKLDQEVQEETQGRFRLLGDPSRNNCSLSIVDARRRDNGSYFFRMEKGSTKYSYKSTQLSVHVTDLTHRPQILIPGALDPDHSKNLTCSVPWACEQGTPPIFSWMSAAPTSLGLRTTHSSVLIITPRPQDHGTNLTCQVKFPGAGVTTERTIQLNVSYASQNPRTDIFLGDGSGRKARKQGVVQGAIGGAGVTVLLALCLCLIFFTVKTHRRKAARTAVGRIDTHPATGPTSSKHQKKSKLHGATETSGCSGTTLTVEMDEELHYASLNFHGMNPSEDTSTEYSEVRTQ

Binder | mean fluorescence intensity at 0.6 nM mAb [MFI] | mean fluorescence intensity at 6 nM mAb [MFI] | mean fluorescence intensity at 60 nM mAb [MFI]
B11 | 22100 | 33400 | 45000
B12 | 116 | 135 | 180
B13 | 117 | 135 | 202
B14 | 35200 | 36900 | 40700
B15 | 36200 | 35700 | 37500

target: T3, Human CD33 full length (human, UniProt P20138 18-364); test: flow cytometry on HEK293F cells expressing human CD33
T3 construct: Stably expressed on HEK293F cells by lentiviral transduction; also called Human CD33 (on HEK293F cells)
Procedure: as §1

T3 sequence (P20138 18-364 limits assumed): as the sequence (P20138 18-364 limits assumed) above

Binder | mean fluorescence intensity at 0.6 nM mAb [MFI] | mean fluorescence intensity at 6 nM mAb [MFI] | mean fluorescence intensity at 60 nM mAb [MFI]
B11 | 153000 | 315000 | 304000
B12 | 154 | 170 | 176
B13 | 151 | 183 | 214
B14 | 205000 | 409000 | 519000
B15 | 138000 | 363000 | 390000
